Source: patent publication US20030119733A1, “Compositions and methods for inhibiting hepatocyte invasion by malarial sporozoites” (New York University, priority 1992, published 2003)

What was measured:
[1] = tested on: heparan sulfate proteoglycans (HSPG); assay: CS/proteoglycan co-immunoprecipitation; assay type: binding, human; conditions: for co-immunoprecipitation of 35SO4-labeled sulfated molecules: lysates of rat liver, HepG2 cells, kidney, others 64 μg/ml; for total sulfate-labeled proteoglycans precipitated: trypsin-released proteoglycan, equivalent concentrations of Region II+
Procedure: All extracts and supernatants were first precleared with normal rabbit serum and Staph A cells. Then 32 μg/ml of CSFZ(Cys) or 64 μg/ml of CS27IVC, Falc-2 or Falc-1 were added for 30 minutes, followed by 10.8 μg/ml mAb 2A10 for 30 minutes, and 1% Staph A cells (final concentrations). The suspensions were shaken for 1 to 5 hours at 4° C. The Staph A cells were washed 3 times with the lysis buffer A, 2 times with lysis buffer B (10 mM Tris-HCl, pH 7.2, containing 100 mM NaCl and 0.5% NP40), 1 time with 50 mM Tris-HCl, ph 7.2, and were processed in this buffer for electrophoresis under reducing and non-reducing conditions.
Extracts of cells metabolically labeled with ^35SO4 were incubated for 30 minutes at 4° C. with 32 μg/ml of recombinant CSFZ(Cys) or 64 μg/ml Falc-1, and were immunoprecipitated with mAb 2A10 and Staph A cells. […] Immunoprecipitation with Falc-1 was negative. The SDS-PAGE patterns of the total lysate of HepG2 cells, and of the molecules co-immunoprecipitated with CSFZ(Cys) resembled the corresponding liver SDS-PAGE patterns. In kidney lysates, CSFZ(Cys) selectively immunoprecipitated a band of slightly lower molecular weight than the total kidney sulfated molecules.
Sub-confluent HepG2 cells were incubated with various concentrations of trypsin for 5 minutes at 4° C. […] Independently of the trypsin concentration, about 80% of the released HSPG was co-immunoprecipitated by 32 μg/ml CSFZ(Cys) and 10.8 μg/ml mAb 2A10. Under the same conditions, Falc-1 was negative.
^35SO4-labeled trypsin-released proteoglycan (total supernatant) was precipitated by CSFZ(Cys) (32 μg/ml), Falc-2 (64 μg/ml), CS27IVC (64 μg/ml) and Falc-1 (64 μg/ml). The labeled molecules were incubated with CSFZ(Cys), CS27IVC, and Falc-2 at equivalent concentrations of Region II+, and co-immunoprecipitated with the mAb 2A10. CSFZ(Cys), lacking most of the repeat region, precipitated up to 86% of the total sulfate-labeled proteoglycans (see FIG. 14), while CS27IVC and Falc-2 precipitated only 18% and 6% of the counts, respectively. Falc-1, which lacks Region II+, was negative.
Subconfluent sulfate-labeled HepG2 cells were incubated with 20 μg/ml trypsin for 5 minutes at 4° C., and the supernatants were loaded onto an anion exchange chromatography Pharmacia mono-Q column. These were eluted with a 0 to 2 M NaCl gradient in the presence of 7 M urea. […] Protein was not detectable in the labeled peaks. One ml fractions were collected and counted.

liver membranes = assay: Binding activity of aggregated and monomeric FPLC fractions; conditions: aggregated form
Procedure: To separate monomers from multimers of recombinant CS, the preparations were subjected to molecular sieving chromatography on an FPLC apparatus (Pharmacia, Piscataway, N.J.). One hundred micrograms of CS27IVC in a phosphate buffer containing 150 mM NaCl (pH 7.2) was injected into a Superose 12 sizing column (Pharmacia). The protein was eluted in the same buffer using a flow rate of 0.2 ml/min. A high molecular weight fraction ([…]) co-eluted with thyroglobulin. The monomeric form of the protein eluted between amylase (molecular weight=200 kDa) and BSA (molecular weight=66kDa).
The methods described by Lambert, J. M. et al., Biochemistry 17:5406-5416, 1978 were followed. Falciparum-1 at a concentration of 1 mg/ml was incubated with 250 mM Traut's reagent (Pierce Chemical Co., Rockford, Ill.) in 50 mM triethylamine-hydrochloric acid (TEA-HCl) (pH 8.0), 1 mM Mg(Ac)2, and 50 mM KCl for 20 min. on ice. Traut's reagent (0.5 M stock) was prepared immediately before use in a solution containing equal volumes of 1 M TEA-HCl and 1 M TEA-free base. The sulfhydryl-containing falciparum-1 was oxidized in ambient air at 4° C. overnight. The presence of aggregated disulfide-linked falciparum-1 was confirmed both by chromatography in an FPLC sizing column and by Western blotting as described above.
The gold conjugates employed in the foregoing liver section experiments contained no aggregates. […]

[2] = Localization in organs after intravenous injection (light and electron microscopy); assay type: in vivo, mouse; conditions: 100 μg i.v., 5 minutes
Procedure: In other experiments, light and electron microscopy were used to localize CS in the various organs. The mice were injected i.v. with 100 μg of unlabeled CS27IVC or Falc-1 via the retroorbital plexus. The mice were exsanguinated five minutes after injection, the organs removed, rinsed in TBS, blotted dry, and then snap frozen in liquid nitrogen for light microscopy. For electron microscopy, the organs were cut into small pieces and fixed in a mixture of 0.1% glutaraldehyde and 4% paraformaldehyde.
Light Microscopy: The frozen tissue was embedded in Tissue Tek O.C.T. (Miles Inc., Naperville, Ill.) and cut into 5 μm sections. Sections were dried for 30 minutes, fixed for 10 minutes in 4% paraformaldehyde, and either used immediately or stored at 4° C. in PBS containing 1% BSA, 0.5% Tween-20. After blocking with the same buffer, the sections were incubated with mAb 2A10 conjugated to FITC, and examined in a fluorescence microscope.
Electron Microscopy: The fixed liver specimens were dehydrated in ethanol and embedded in Lowicryl K4M at −20° C. (Frevert et al., Infect. and Immun. 80:2349 (1992)). After UV polymerization, sections were cut with a RMC MT-7 ultramicrotome and stained by sequential incubation with 15 μg/ml mAb 2A10 and protein A gold 10 nm (PAG10) (1:30, Amersham, Arlington, Ill.). Cerami et al., Cell 70:1021 (1992). Control sections were strained only with the gold conjugate. […]

Molecule | co-immunoprecipitation of 35SO4-labeled sulfated molecules ([1]; CSFZ(Cys) 32 μg/ml) | total sulfate-labeled proteoglycans precipitated [1] | co-immunoprecipitation of 35SO4-labeled sulfated molecules ([1]; CSFZ(Cys) 32 μg/ml, listed as Falc-1) | released HSPG co-immunoprecipitated ([1]; trypsin-released from HepG2 cells, CSFZ(Cys) 32 μg/ml, mAb 2A10 10.8 μg/ml) | binding activity (liver membranes) | staining of kidney or other organs with FITC-labeled mAb 2A10 [2] | staining of liver with FITC-labeled mAb 2A10 [2]
Falciparum-2: fragment of P. falciparum CS protein with repeats and Region II+ (residues 43-391) (protein) AGTNLYNELEMNYYGKQENWYSLKKNSRSLGENDDGNNNNGDNGREGKDEDKRDGNNEDNEKLRKPKHKKLKQPGDGNPDPNANPNVDPNANPNVDPNANPNVDPNANPNANPNANPNANPNANPNANPNANPNANPNANPNANPNANPNANPNANPNANPNANPNVDPNANPNANPNANPNANPNANPNANPNANPNANPNANPNANPNANPNANPNANPNANPNANPNANPNANPNANPNANPNKNNQGNGQGHNMPNDPNRNVDENANANNAVKNNNNEEPSDKHIEQYLKKIKNSISTEWSPCSVTCGNGIQVRIKPGSANKPKDELDYENDIEKKICKMEKCSS | less efficient | 6% | – | – | – | – | –
Falciparum-1: Same as Falciparum-2 minus most of Region II+ (P. falciparum residues 43-348) (protein) AGTNLYNELEMNYYGKQENWYSLKKNSRSLGENDDGNNNNGDNGREGKDEDKRDGNNEDNEKLRKPKHKKLKQPGDGNPDPNANPNVDPNANPNVDPNANPNVDPNANPNANPNANPNANPNANPNANPNANPNANPNANPNANPNANPNANPNANPNANPNANPNVDPNANPNANPNANPNANPNANPNANPNANPNANPNANPNANPNANPNANPNANPNANPNANPNANPNANPNANPNANPNKNNQGNGQGHNMPNDPNRNVDENANANNAVKNNNNEEPSDKHIEQYLKKIKNSISTEWSP | – | negative | Negative results | negative | inactive | No staining | No staining
